{"source": "patent US20220411491A1", "about": "(Hoffmann-La Roche, published 2022)", "binders": {"B1": {"name": "B72-TCB (bispecific antibody, human IgG1, kappa, L234A L235A)", "heavy 1": "not shown", "light 1": "EVQLVESGGGLVQPGGSLRLSCAASGFTFNTYAMNWVRQAPGKGLEWVARIRSKYNNYATYYAASVKGRFTISRDDSKNSLYLQMNSLKTEDTAVYYCARHGNFGNSYVSWFAYWGQGTLVTVSSASVAAPSVFIFPPSDEQLKSGTASVVCLLNNFYPREAKVQWKVDNALQSGNSQESVTEQDSKDSTYSLSSTLTLSKADYEKHKVYACEVTHQGLSSPVTKSFNRGEC", "heavy 2": "QVQLVQSGAEVKKPGASVKVSCKASGYSFTGYTMNWVRQAPGQGLEWMGLINPYNSDTNYAQKLQGRVTMTTDTSTSTAYMELRSLRSDDTAVYYCARVALRVALDYWGQGTLVTVSSASTKGPSVFPLAPSSKSTSGGTAALGCLVEDYFPEPVTVSWNSGALTSGVHTFPAVLQSSGLYSLSSVVTVPSSSLGTQTYICNVNHKPSNTKVDEKVEPKSCDKTHTCPPCPAPEAAGGPSVFLFPPKPKDTLMISRTPEVTCVVVDVSHEDPEVKFNWYVDGVEVHNAKTKPREEQYNSTYRVVSVLTVLHQDWLNGKEYKCKVSNKALGAPIEKTISKAKGQPREPQVCTLPPSRDELTKNQVSLSCAVKGFYPSDIAVEWESNGQPENNYKTTPPVLDSDGSFFLVSKLTVDKSRWQQGNVFSCSVMHEALHNHYTQKSLSLSPGK", "light 2": "DIQMTQSPSSLSASVGDRVTITCKASQNVATHVGWYQQKPGKAPKRLIYSASYRYSGVPSRFSGSGSGTEFTLTISNLQPEDFATYYCQQYNRYPYTFGQGTKLEIKRTVAAPSVFIFPPSDRKLKSGTASVVCLLNNFYPREAKVQWKVDNALQSGNSQESVTEQDSKDSTYSLSSTLTLSKADYEKHKVYACEVTHQGLSSPVTKSFNRGEC"}, "B2": {"name": "P1AE5706 (antibody, V domains shown)", "VH": "ELQLEQSGGGLVQPGGSLTLSCAASGFTFSKYAMAWVRQAPTKGLEWVASISTGGVNTYYRDSVKARFTISRDNAKNTQYLQMDSLRSEDTATYYCATHTGDYFDYWGQGVMVTVSS", "VL": "DIVLTQSPALAVSPGQRATISCRASQSVSISGINLMNWYQQKPGQQPKLLIYHASILASGIPTRFSGSGSGTDFTLTIDPVQADDIATYYCQQTRESPLTFGSGTNLEIK"}, "B3": {"name": "P1AE5707 (antibody, V domains shown)", "VH": "EVQLLESGGGLVQPGGSLRLSCAASGFTFSKYAMAWVRQAPGKGLEWVASISTGGVNTYYRDSVKARFTISRDNSKNTLYLQMNSLRAEDTAVYYCATHTGDYFDYWGQGTMVTVSS", "VL": "DIVMTQSPDSLAVSLGERATINCRASQSVSISGINLMNWYQQKPGQQPKLLIYHASILASGVPDRFSGSGSGTDFTLTISSLQAEDVAVYYCQQTRESPLTFGQGTRLEIK"}, "B4": {"name": "P1AE5708 (antibody, V domains shown)", "VH": "B3 VH", "VL": "B3 VL with R24K, A25S"}, "B5": {"name": "P1AE5713 (antibody, V domains shown)", "VH": "B3 VH", "VL": "DIQMTQSPSSLSASVGDRVTITCRASQSVSISGINLMNWYQQKPGQQPKLLIYHASILASGVPSRFSGSGSGTDFTLTISSLQPEDFATYYCQQTRESPLTFGQGTRLEIK"}, "B6": {"name": "P1AE5714 (antibody, V domains shown)", "VH": "B3 VH with V2L, S75A", "VL": "B3 VL"}, "B7": {"name": "P1AE5715 (antibody, V domains shown)", "VH": "B3 VH with V2L, S75A", "VL": "B3 VL with R24K, A25S"}, "B8": {"name": "P1AE5720 (antibody, V domains shown)", "VH": "B3 VH with R61A, A66G", "VL": "B3 VL"}, "B9": {"name": "P1AE5721 (antibody, V domains shown)", "VH": "B3 VH with R61A, A66G", "VL": "B3 VL with R24K, A25S"}, "B10": {"name": "P1AE5726 (antibody, V domains shown)", "VH": "B3 VH with V2L, R61A, A66G, S75A", "VL": "B3 VL"}, "B11": {"name": "P1AE5727 (antibody, V domains shown)", "VH": "B3 VH with V2L, R61A, A66G, S75A", "VL": "B3 VL with R24K, A25S"}, "B12": {"name": "P1AE5709 (antibody, V domains shown)", "VH": "B3 VH", "VL": "EIVLTQSPGTLSLSPGERATLSCRASQSVSISGINLMNWYQQKPGQQPRLLIYHASILASGIPDRFSGSGSGTDFTLTISRLEPEDFAVYYCQQTRESPLTFGQGTRLEIK"}, "B13": {"name": "P1AE5710 (antibody, V domains shown)", "VH": "B3 VH", "VL": "B12 VL with R49K"}, "B14": {"name": "P1AE5716 (antibody, V domains shown)", "VH": "B3 VH with V2L, S75A", "VL": "B12 VL"}, "B15": {"name": "P1AE5717 (antibody, V domains shown)", "VH": "B3 VH with V2L, S75A", "VL": "B12 VL with R49K"}, "B16": {"name": "P1AE5722 (antibody, V domains shown)", "VH": "B3 VH with R61A, A66G", "VL": "B12 VL"}, "B17": {"name": "P1AE5723 (antibody, V domains shown)", "VH": "B3 VH with R61A, A66G", "VL": "B12 VL with R49K"}, "B18": {"name": "P1AE5728 (antibody, V domains shown)", "VH": "B3 VH with V2L, R61A, A66G, S75A", "VL": "B12 VL"}, "B19": {"name": "P1AE5729 (antibody, V domains shown)", "VH": "B3 VH with V2L, R61A, A66G, S75A", "VL": "B12 VL with R49K"}, "B20": {"name": "P1AE5712 (antibody, V domains shown)", "VH": "B3 VH", "VL": "B5 VL with Q46K"}, "B21": {"name": "P1AE5718 (antibody, V domains shown)", "VH": "B3 VH with V2L, S75A", "VL": "B5 VL with Q46K"}, "B22": {"name": "P1AE5719 (antibody, V domains shown)", "VH": "B3 VH with V2L, S75A", "VL": "B5 VL"}, "B23": {"name": "P1AE5724 (antibody, V domains shown)", "VH": "B3 VH with R61A, A66G", "VL": "B5 VL with Q46K"}, "B24": {"name": "P1AE5725 (antibody, V domains shown)", "VH": "B3 VH with R61A, A66G", "VL": "B5 VL"}, "B25": {"name": "P1AE5730 (antibody, V domains shown)", "VH": "B3 VH with V2L, R61A, A66G, S75A", "VL": "B5 VL with Q46K"}, "B26": {"name": "P1AE5731 (antibody, V domains shown)", "VH": "B3 VH with V2L, R61A, A66G, S75A", "VL": "B5 VL"}, "B27": {"name": "ET150-5-TCB (bispecific antibody, human IgG1, lambda, L234A L235A)", "light 1": "QSVLTQPPSASGTPGQRVTISCSGSRSNVGGNYVFWYQQVPGATPKLLIYRSNQRPSGVPDRFAGSKSGSSASLAISGLRSEDEADYYCATWDDSLSGFVFGTGTKVTVLGQPKAAPSVTLFPPSSKKLQANKATLVCLISDFYPGAVTVAWKADSSPVKAGVETTTPSKQSNNKYAASSYLSLTPEQWKSHRSYSCQVTHEGSTVEKTVAPTECS", "light 2": "B1 light 1 with V5L, N30S, A49S, A64D, S80T, K89R, T90A, A99V", "heavy 1": "EVQLVESGGGLVKPGGSLRLSCAASGFTFSDYYMSWIRQAPGKGLEWVSYISSSGSTIYYADSVKGRFTISRDNAKNSLYLQMNSLRAEDTAVYYCARGYGKAYDQWGQGTLVTVSSASTKGPSVFPLAPSSKSTSGGTAALGCLVEDYFPEPVTVSWNSGALTSGVHTFPAVLQSSGLYSLSSVVTVPSSSLGTQTYICNVNHKPSNTKVDEKVEPKSCDKTHTCPPCPAPEAAGGPSVFLFPPKPKDTLMISRTPEVTCVVVDVSHEDPEVKFNWYVDGVEVHNAKTKPREEQYNSTYRVVSVLTVLHQDWLNGKEYKCKVSNKALGAPIEKTISKAKGQPREPQVCTLPPSRDELTKNQVSLSCAVKGFYPSDIAVEWESNGQPENNYKTTPPVLDSDGSFFLVSKLTVDKSRWQQGNVFSCSVMHEALHNHYTQKSLSLSPGK", "heavy 2": "not shown"}}, "note": "Residue numbers refer to the chain shown, from its start."}
{"target": "T1, human GPRC5D (human, UniProt Q9NZD1 1-345)", "T1 sequence (Q9NZD1 whole entry)": "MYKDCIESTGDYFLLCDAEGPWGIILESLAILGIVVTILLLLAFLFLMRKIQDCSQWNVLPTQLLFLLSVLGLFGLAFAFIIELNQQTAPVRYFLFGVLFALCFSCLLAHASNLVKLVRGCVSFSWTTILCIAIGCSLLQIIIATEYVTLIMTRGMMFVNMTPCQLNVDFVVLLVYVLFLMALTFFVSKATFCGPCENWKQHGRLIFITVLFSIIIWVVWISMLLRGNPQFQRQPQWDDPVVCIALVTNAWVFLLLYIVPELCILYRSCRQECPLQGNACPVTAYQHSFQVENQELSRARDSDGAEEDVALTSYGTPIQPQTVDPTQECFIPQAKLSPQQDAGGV", "assay": "cell-based or functional assay", "units": {"EC50 of in vitro killing, AMO-1": "nM", "EC50 of in vitro killing, EJM": "nM", "EC50 of in vitro killing, L363": "nM", "EC50 of in vitro killing, MOLP-2": "nM", "EC50 of in vitro killing, NCI-H929": "nM", "EC50 of in vitro killing, OPM-2": "nM", "EC50 of in vitro killing, RPMI": "nM"}}
{"binder": "B1", "EC50 of in vitro killing, AMO-1": 0.109, "EC50 of in vitro killing, EJM": 0.06, "EC50 of in vitro killing, L363": 0.058, "EC50 of in vitro killing, MOLP-2": 0.124, "EC50 of in vitro killing, NCI-H929": 0.058, "EC50 of in vitro killing, OPM-2": 0.171, "EC50 of in vitro killing, RPMI": 0.193}
{"target": "T1, human GPRC5D", "assay": "cell-based or functional assay", "remark": "another data set of the same source", "units": {"CAR-J2 EC50": "ng/mL"}}
{"binder": "B2", "CAR-J2 EC50": 3.9}
{"binder": "B3", "CAR-J2 EC50": 42.4}
{"binder": "B4", "CAR-J2 EC50": 456}
{"binder": "B5", "CAR-J2 EC50": 76.9}
{"binder": "B6", "CAR-J2 EC50": 5.5}
{"binder": "B7", "CAR-J2 EC50": 3.6}
{"binder": "B8", "CAR-J2 EC50": 6.3}
{"binder": "B9", "CAR-J2 EC50": 25}
{"binder": "B10", "CAR-J2 EC50": 37.8}
{"binder": "B11", "CAR-J2 EC50": 6.3}
{"binder": "B12", "CAR-J2 EC50": 59.4}
{"binder": "B13", "CAR-J2 EC50": 3.5}
{"binder": "B14", "CAR-J2 EC50": 3.3}
{"binder": "B15", "CAR-J2 EC50": 79.9}
{"binder": "B16", "CAR-J2 EC50": 4.6}
{"binder": "B17", "CAR-J2 EC50": 3.7}
{"binder": "B18", "CAR-J2 EC50": 5.6}
{"binder": "B19", "CAR-J2 EC50": 61.3}
{"binder": "B20", "CAR-J2 EC50": 16.1}
{"binder": "B21", "CAR-J2 EC50": 105}
{"binder": "B22", "CAR-J2 EC50": 2.8}
{"binder": "B23", "CAR-J2 EC50": 3.6}
{"binder": "B24", "CAR-J2 EC50": 10.9}
{"binder": "B25", "CAR-J2 EC50": 3.5}
{"binder": "B26", "CAR-J2 EC50": 2.3}
{"target": "T1, human GPRC5D", "assay": "cell-based or functional assay", "remark": "another data set of the same source", "units": {"EC50 of T cell mediated killing, AMO-1 cells (LDH release)": "nM", "EC50 of T cell mediated killing, L363 cells (LDH release)": "nM", "EC50 of T cell mediated killing, NCI-H929 cells (LDH release)": "nM", "EC50 of T cell mediated killing, RPMI-8226 cells (LDH release)": "nM"}}
{"binder": "B27", "EC50 of T cell mediated killing, AMO-1 cells (LDH release)": 0.0835, "EC50 of T cell mediated killing, L363 cells (LDH release)": 0.768, "EC50 of T cell mediated killing, NCI-H929 cells (LDH release)": 0.833, "EC50 of T cell mediated killing, RPMI-8226 cells (LDH release)": 0.797}
